The source of these data is article PMC12482190, “Characterization of PPE19 as a novel mediator of Mycobacterium tuberculosis-macrophage interactions” (mSphere, 2025).

This test has as its target T1, PPE19-GST-bio (biotinylated PPE19 with an N-terminal GST tag) (Mycobacterium tuberculosis H37Rv, UniProt P9WI25 1-396).
T1 construct: also called biotinylated PPE19-GST; not shown: GST, N-terminal, kept
T1 sequence: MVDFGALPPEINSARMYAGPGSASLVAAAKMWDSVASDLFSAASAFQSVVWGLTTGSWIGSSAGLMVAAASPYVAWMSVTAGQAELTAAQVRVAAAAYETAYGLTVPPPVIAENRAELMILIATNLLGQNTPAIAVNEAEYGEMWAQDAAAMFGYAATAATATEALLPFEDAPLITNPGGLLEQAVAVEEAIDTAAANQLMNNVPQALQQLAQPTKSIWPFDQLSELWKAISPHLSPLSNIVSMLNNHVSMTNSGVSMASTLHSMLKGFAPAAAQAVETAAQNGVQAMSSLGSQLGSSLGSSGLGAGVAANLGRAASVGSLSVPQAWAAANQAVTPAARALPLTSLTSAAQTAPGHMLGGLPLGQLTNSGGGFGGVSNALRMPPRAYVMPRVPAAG
The experiment in a line: AlphaScreen or HTRF. Conditions: both partners purified.

B1: PE13-His (PE13 with a polyhistidine affinity tag) (natural protein)
chain: MSFVMAYPEMLAAAADTLQSIGATTVASNAAAAAPTTGVVPPAADEVSALTAAHFAAHAAMYQSVSARAAAIHDQFVATLASSASSYAATEVANAAAAS
Turning to B1, the binding result is given as “binds”.
